From article PMC6215714 (Nature chemical biology, 2015) come the findings set out here.

For the experiment, the target named is Growth arrest specific 6 (Gas6), soluble, His-tagged (Homo sapiens, UniProt Q14393). Kind of experiment: flow cytometry on cells. (In flow cytometry, cells or beads pass a laser one at a time.)
Growth arrest specific 6 (Gas6), soluble, His-tagged, sequence (Q14393 31-678): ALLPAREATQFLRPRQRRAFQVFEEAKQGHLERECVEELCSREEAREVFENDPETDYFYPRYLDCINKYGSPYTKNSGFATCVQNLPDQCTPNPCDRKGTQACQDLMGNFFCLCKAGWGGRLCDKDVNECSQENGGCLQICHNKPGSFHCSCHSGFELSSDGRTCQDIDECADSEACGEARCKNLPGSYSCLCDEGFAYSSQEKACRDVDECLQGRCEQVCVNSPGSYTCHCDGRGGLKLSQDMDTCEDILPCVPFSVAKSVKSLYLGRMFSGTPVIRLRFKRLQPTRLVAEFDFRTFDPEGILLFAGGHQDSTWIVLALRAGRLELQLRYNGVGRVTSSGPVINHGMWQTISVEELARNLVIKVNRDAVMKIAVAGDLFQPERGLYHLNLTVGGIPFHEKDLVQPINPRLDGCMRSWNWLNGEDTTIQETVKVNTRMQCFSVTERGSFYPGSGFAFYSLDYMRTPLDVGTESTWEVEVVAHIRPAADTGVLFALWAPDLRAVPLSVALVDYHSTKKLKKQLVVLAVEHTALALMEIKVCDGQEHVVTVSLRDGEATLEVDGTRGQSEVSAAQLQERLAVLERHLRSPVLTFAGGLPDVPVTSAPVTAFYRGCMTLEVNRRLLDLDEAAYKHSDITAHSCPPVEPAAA

B1: anti-Gas6 scFv identified by μSCALE from a naïve yeast-displayed scFv library (scFv, V domains shown)
VH: EVQLVESGGGLVQPGGSLRLSCAASGFNISYGGSYIHWVRQAPGKGLEWVASIYPGGGYTYYADSVKGRFTISADTSKNTAYLQMNSLRAEDTAVYYCARTVRGSKKPYFSGWAMDYWGQGTLVTVSS
VL: DIQMTQSPSSLSASVGDRVTITCRASQYGGYGGVAWYQQKPGKAPKLLIYYASSLYSGVPSRFSGSRSGTDFTLTISSLQPEDFATYYCQQWWGYPITFGQGTKVEIK
What is called Kd is the equilibrium constant for the complex coming apart. A higher Kd goes with lower affinity. B1 gave a Kd of 130 nM.
